In patent publication US20210388087A1:
Where a chain is given by its changes, count along the chain named. Numbers in names are those of the source. Values belong to the binder of their own block, whether it stands above or below them.

Target: Human CD3eg linker (human)
Assay: SPR; fold vs parent H183/L072

Sequence of Human CD3eg linker (human) (chain, as listed by the source limits assumed): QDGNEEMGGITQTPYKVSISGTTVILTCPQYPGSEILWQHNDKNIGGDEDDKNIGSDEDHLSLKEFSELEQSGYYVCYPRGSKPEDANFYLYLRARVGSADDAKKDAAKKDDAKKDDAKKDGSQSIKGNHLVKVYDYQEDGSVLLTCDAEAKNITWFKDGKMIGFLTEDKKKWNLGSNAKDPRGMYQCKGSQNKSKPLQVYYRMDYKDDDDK

B1: H183/L072 VL N28P (antibody, name in Kabat numbering, V domains shown)
VH: QVQLVESGGGLVQPGRSLRLSCAASGFTFSNAWMHWVRQAPGKGLEWVAQIKDKGNAYAAYYAPSVKGRFTISRDDSKNSIYLQMNSLKTEDTAVYYCHYVHYASASTVLPAFGVDAWGQGTTVTVSS
VL: DIVMTQSPLSLPVTPGEPASISCQASQELVHMPRNTYLHWYQQKPGQAPRLLIYKVSNRFPGVPDRFSGSGSGTDFTLKISRVEAEDVGVYYCAQGTSVPFTFGQGTKLEIK
- fold change of affinity: 0 fold

B5: H183/L072 VL H34V (antibody, name in Kabat numbering, V domains shown)
VH: B1 VH
VL: B1 VL with P33N, H39V
- fold change of affinity: 0 fold

B9: H183/L072 VL G91A (antibody, name in Kabat numbering, V domains shown)
VH: B1 VH
VL: B1 VL with P33N, G96A
- fold change of affinity: 0 fold

B10: H183/L072 VL L33P (antibody, name in Kabat numbering, V domains shown)
VH: B1 VH
VL: B1 VL with P33N, L38P
- fold change of affinity: 0 fold

B11: H183/L072 VL N30P (antibody, name in Kabat numbering, V domains shown)
VH: B1 VH
VL: B1 VL with P33N, N35P
- fold change of affinity: 0 fold

B12: H183/L072 VL H27dV (antibody, name in Kabat numbering, V domains shown)
VH: B1 VH
VL: B1 VL with H31V, P33N
- fold change of affinity: 0 fold

B13: H183/L072 VL H34P (antibody, name in Kabat numbering, V domains shown)
VH: B1 VH
VL: B1 VL with P33N, H39P
- fold change of affinity: 0 fold

B14: H183/L072 VL L33W (antibody, name in Kabat numbering, V domains shown)
VH: B1 VH
VL: B1 VL with P33N, L38W
- fold change of affinity: 0 fold

B15: H183/L072 VL N28W (antibody, name in Kabat numbering, V domains shown)
VH: B1 VH
VL: B1 VL with P33W
- fold change of affinity: 0 fold

B16: H183/L072 VL H27dW (antibody, name in Kabat numbering, V domains shown)
VH: B1 VH
VL: B1 VL with H31W, P33N
- fold change of affinity: 0 fold

B17: H183/L072 VL L33Y (antibody, name in Kabat numbering, V domains shown)
VH: B1 VH
VL: B1 VL with P33N, L38Y
- fold change of affinity: 0 fold

B18: H183/L072 VL L27bW (antibody, name in Kabat numbering, V domains shown)
VH: B1 VH
VL: B1 VL with L29W, P33N
- fold change of affinity: 0 fold

B20: H183/L072 VL H27dR (antibody, name in Kabat numbering, V domains shown)
VH: B1 VH
VL: B1 VL with H31R, P33N
- fold change of affinity: 0 fold

B21: H183/L072 VL N28Y (antibody, name in Kabat numbering, V domains shown)
VH: B1 VH
VL: B1 VL with P33Y
- fold change of affinity: 0 fold

B23: H183/L072 VL H27dY (antibody, name in Kabat numbering, V domains shown)
VH: B1 VH
VL: B1 VL with H31Y, P33N
- fold change of affinity: 0 fold

B24: H183/L072 VL F96A (antibody, name in Kabat numbering, V domains shown)
VH: B1 VH
VL: B1 VL with P33N, F101A
- fold change of affinity: 0 fold

B27: H183/L072 VL N28F (antibody, name in Kabat numbering, V domains shown)
VH: B1 VH
VL: B1 VL with P33F
- fold change of affinity: 0 fold

B28: H183/L072 VL N28R (antibody, name in Kabat numbering, V domains shown)
VH: B1 VH
VL: B1 VL with P33R
- fold change of affinity: 0 fold

B30: H183/L072 VL L27bG (antibody, name in Kabat numbering, V domains shown)
VH: B1 VH
VL: B1 VL with L29G, P33N
- fold change of affinity: 0 fold

B31: H183/L072 VL N28V (antibody, name in Kabat numbering, V domains shown)
VH: B1 VH
VL: B1 VL with P33V
- fold change of affinity: 0 fold

B33: H183/L072 VL K50A (antibody, name in Kabat numbering, V domains shown)
VH: B1 VH
VL: B1 VL with P33N, K55A
- fold change of affinity: 0 fold

The next lines start with the values.

- fold change of affinity: 0 fold
B2: H183/L072 VL R29P (antibody, name in Kabat numbering, V domains shown)
VH: B1 VH
VL: B1 VL with P33N, R34P

- fold change of affinity: 0 fold
B3: H183/L072 VL Y32W (antibody, name in Kabat numbering, V domains shown)
VH: B1 VH
VL: B1 VL with P33N, Y37W

- fold change of affinity: 0 fold
B4: H183/L072 VL P95A (antibody, name in Kabat numbering, V domains shown)
VH: B1 VH
VL: B1 VL with P33N, P100A

- fold change of affinity: 0 fold
B6: H183/L072 VL Q90A (antibody, name in Kabat numbering, V domains shown)
VH: B1 VH
VL: B1 VL with P33N, Q95A

- fold change of affinity: 0 fold
B7: H183/L072 VL T31P (antibody, name in Kabat numbering, V domains shown)
VH: B1 VH
VL: B1 VL with P33N, T36P

- fold change of affinity: 0 fold
B8: H183/L072 VL Y32V (antibody, name in Kabat numbering, V domains shown)
VH: B1 VH
VL: B1 VL with P33N, Y37V

- fold change of affinity: 0 fold
B19: H183/L072 VL Y32P (antibody, name in Kabat numbering, V domains shown)
VH: B1 VH
VL: B1 VL with P33N, Y37P

- fold change of affinity: 0 fold
B22: H183/L072 VL V27cG (antibody, name in Kabat numbering, V domains shown)
VH: B1 VH
VL: B1 VL with V30G, P33N

- fold change of affinity: 0 fold
B25: H183/L072 VL T31W (antibody, name in Kabat numbering, V domains shown)
VH: B1 VH
VL: B1 VL with P33N, T36W

- fold change of affinity: 0 fold
B26: H183/L072 VL T31Y (antibody, name in Kabat numbering, V domains shown)
VH: B1 VH
VL: B1 VL with P33N, T36Y

- fold change of affinity: 0 fold
B29: H183/L072 VL T31F (antibody, name in Kabat numbering, V domains shown)
VH: B1 VH
VL: B1 VL with P33N, T36F

- fold change of affinity: 0 fold
B32: H183/L072 VL Y32F (antibody, name in Kabat numbering, V domains shown)
VH: B1 VH
VL: B1 VL with P33N, Y37F
